# According to patent publication US10787678:
# Biological target: A. diaperinus cadherin-1 (AdCad1) (Alphitobius diaperinus)
# Test: cell-based or functional assay
substance,measurement,value
Cry3Bb toxin (from UniProt Q06117 64-652),"larval mortality on day 3, 100 ug/cm^2 Cry3Bb, larvae injected with AdCad1-dsRNA #1 (AdCad1 knocked down)",8%
same,"larval mortality on day 3, 100 ug/cm^2 Cry3Bb, larvae injected with AdCad1-dsRNA #2 (AdCad1 knocked down)",11%
